The source of these data is patent publication US20150037356A1 (AstraZeneca / MedImmune, published 2015).

Test [1] addresses T1, endogenous Siglec-15 on leukaemic cell lines (human, UniProt Q6ZMC9 20-328).
T1 sequence (looked up): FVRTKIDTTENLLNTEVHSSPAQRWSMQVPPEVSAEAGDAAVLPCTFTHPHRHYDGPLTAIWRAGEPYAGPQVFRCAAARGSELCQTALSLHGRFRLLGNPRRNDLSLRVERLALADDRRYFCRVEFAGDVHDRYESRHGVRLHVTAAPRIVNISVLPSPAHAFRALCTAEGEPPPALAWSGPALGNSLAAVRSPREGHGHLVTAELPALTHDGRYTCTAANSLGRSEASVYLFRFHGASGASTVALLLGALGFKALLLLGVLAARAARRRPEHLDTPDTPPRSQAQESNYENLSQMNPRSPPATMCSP
Kind of test: cell-based or functional assay.

Test [2] has as its target T2, CD33 on U937 cells (UniProt P20138 18-364, limits assumed).
T2 construct: whole, on cells
The experiment in a line: FACS on U937 cells.

The target in test [3] is T3, Siglec-9 on U937 cells (UniProt Q9Y336 18-463, limits assumed).
T3 construct: whole, on cells
T3 sequence (Q9Y336 18-463 limits assumed): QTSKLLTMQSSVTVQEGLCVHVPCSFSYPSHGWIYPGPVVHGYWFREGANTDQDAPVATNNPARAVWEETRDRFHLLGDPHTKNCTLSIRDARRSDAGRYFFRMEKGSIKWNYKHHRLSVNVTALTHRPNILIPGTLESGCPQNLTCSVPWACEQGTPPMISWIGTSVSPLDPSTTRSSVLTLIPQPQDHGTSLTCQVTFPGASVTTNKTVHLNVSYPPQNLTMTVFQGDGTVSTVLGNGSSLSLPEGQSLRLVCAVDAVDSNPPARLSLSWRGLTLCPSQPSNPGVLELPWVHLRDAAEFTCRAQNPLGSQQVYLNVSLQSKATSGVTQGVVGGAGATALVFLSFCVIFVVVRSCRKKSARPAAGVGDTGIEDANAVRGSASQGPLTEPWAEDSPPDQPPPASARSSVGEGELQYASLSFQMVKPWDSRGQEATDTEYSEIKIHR
The experiment in a line: FACS on U937 cells.

Test [4] has as its target T4, Siglec-5 on U937 cells (UniProt O15389 17-551, limits assumed).
T4 construct: whole, on cells
T4 sequence (looked up): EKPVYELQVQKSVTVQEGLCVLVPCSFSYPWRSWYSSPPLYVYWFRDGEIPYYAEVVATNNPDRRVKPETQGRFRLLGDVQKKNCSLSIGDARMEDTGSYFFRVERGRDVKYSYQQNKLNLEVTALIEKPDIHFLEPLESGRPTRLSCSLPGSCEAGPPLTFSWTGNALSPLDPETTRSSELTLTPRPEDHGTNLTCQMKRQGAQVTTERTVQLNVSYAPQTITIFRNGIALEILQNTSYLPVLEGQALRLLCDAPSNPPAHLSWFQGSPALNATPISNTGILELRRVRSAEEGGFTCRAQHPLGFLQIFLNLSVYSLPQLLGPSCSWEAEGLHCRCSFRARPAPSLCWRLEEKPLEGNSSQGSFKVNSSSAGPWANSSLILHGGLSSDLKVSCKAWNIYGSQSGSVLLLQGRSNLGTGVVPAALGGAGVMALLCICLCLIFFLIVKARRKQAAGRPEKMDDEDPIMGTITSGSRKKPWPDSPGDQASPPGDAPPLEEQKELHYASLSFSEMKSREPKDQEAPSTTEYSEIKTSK
The experiment in a line: FACS on U937 cells.

T2 sequence (P20138 18-364 limits assumed): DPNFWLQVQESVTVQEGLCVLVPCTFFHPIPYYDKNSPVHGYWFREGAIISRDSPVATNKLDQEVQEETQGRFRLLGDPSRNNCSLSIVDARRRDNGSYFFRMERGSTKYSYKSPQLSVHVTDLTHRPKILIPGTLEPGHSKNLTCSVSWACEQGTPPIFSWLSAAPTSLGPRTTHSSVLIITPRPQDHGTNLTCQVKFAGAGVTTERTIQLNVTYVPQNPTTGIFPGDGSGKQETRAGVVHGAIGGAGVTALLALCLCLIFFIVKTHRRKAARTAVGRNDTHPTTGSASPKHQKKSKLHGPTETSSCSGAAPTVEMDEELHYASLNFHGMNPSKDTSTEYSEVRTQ

B1: A9E8 monoclonal antibody (mouse IgG1 format) (antibody, V domains shown)
VH: QLQLQESGPGLVKPSETLSLTCAVSGASISNWWSWVRQPPGKGLEWIGEVHHSGVTTYKPSLKSRVTISVDNSKNQLSLKLTSVTAADTAVYYCAREFADDAFDIWGRGTMVTVSS
VL: SSELTQDPAVSVALGQTVRITCRGDSLRKYYASWYQQKPRQAPQLVIYHKNNRASGIPDRFSGSISGNTASLTITGAQAEDEAAYFCNSRDTSGNYLVFGGGTKVTVLG
notes: VH and VL from the phage scFv were cloned into a mouse IgG1 backbone and expressed as complete mouse IgG1; also called A9E8 antibody
In test [1], B1 came in with a half-life of endocytosis of 2.9 min. Also, the binding result in test [2], in test [3] and in test [4] was “no binding” in each case.
